Results: patent publication US20260337278 (published 2026)
Like-named read-outs stand apart in the source and are kept apart here.

Columns and labels:
Assay in all cases: BLI
[1] = biological target: T1, EGFRvIII (human, UniProt P00533)
[2] = biological target: EGFR (wild-type, His-tagged or biotinylated) (human, UniProt P00533)
[3] = biological target: T1, EGFRvIII; remark: listed apart in the source

B1: SI-95X63 (antibody)
chain 1: not shown
chain 2: DILMTQSPSSMSVSLGDTVSITCHSSQDINSNIGWLQQRPGKSFKGLIYHGTNLDDEVPSRFSGSGSGADYSLTISSLESEDFADYYCVQYAQFPWTFGGGTKLEIKRTVAAPSVFIFPPSDEQLKSGTASVVCLLNNFYPREAKVQWKVDNALQSGNSQESVTEQDSKDSTYSLSSTLTLSKADYEKHKVYACEVTHQGLSSPVTKSFNRGEC
Binder B1 has a Kd [1] of 0.493 nM and a Kd [2] of 0.497 nM.

B2: SI-95X9 (antibody)
chain 1: not shown
chain 2: DILMTQSPSSMSVSLGDTVSITCHSSQDINSNIGWLQQRPGKSFKGLIYHGTNLDDEVPSRFSGSGSGADYSLTISSLESEDFADYYCVQYAQFPWTFGGGTKLEIKRTVAAPSVFIFPPSDEQLKSGTASVVCLLNNFYPREAKVQWKVDNALQSGNSQESVTEQDSKDSTYSLSSTLTLSKADYEKHKVYACEVTHQGLSSPVTKSFNRGEC
In the case of B2, the Kd [3] is reported as 6.16 nM.

B3: SI-95X64 (antibody)
chain 1: not shown
chain 2: DILMTQSPSSMSVSLGDTVSITCHSSQDINSNIGWLQQRPGKSFKGLIYHGTNLDDEVPSRFSGSGSGADYSLTISSLESEDFADYYCVQYAQFPWTFGGGTKLEIKRTVAAPSVFIFPPSDEQLKSGTASVVCLLNNFYPREAKVQWKVDNALQSGNSQESVTEQDSKDSTYSLSSTLTLSKADYEKHKVYACEVTHQGLSSPVTKSFNRGEC
In the case of B3, the Kd [1] is reported as 0.638 nM and the Kd [2] is reported as 2.31 nM.

B4: SI-95X46 (antibody)
chain 1: not shown
chain 2: EIVLTQSPSTLSVSPGERATFSCRASQSIGTNIHWYQQKPGKPPRLLIKYASESISGIPDRFSGSGSGTEFTLTISSVQSEDFAVYYCQQNNNWPTTFGPGTKLTVLRTVAAPSVFIFPPSDEQLKSGTASVVCLLNNFYPREAKVQWKVDNALQSGNSQESVTEQDSKDSTYSLSSTLTLSKADYEKHKVYACEVTHQGLSSPVTKSFNRGEC
B4 was tested, and the Kd [1] was 0.358 nM and the Kd [2] was 7.3 nM.

B5: SI-95X51 (antibody)
chain 1: not shown
chain 2: DIVMTQSPSSVSLSLGDRVTITCHSSQDINSNIGWLQQKPGKAFKGLIYHGTNLDDGVPSRFSGSGSGADYTLTISSLQAEDFATYYCVQYAQFPWTFGPGTKLEIKRTVAAPSVFIFPPSDEQLKSGTASVVCLLNNFYPREAKVQWKVDNALQSGNSQESVTEQDSKDSTYSLSSTLTLSKADYEKHKVYACEVTHQGLSSPVTKSFNRGEC
B5 gave a Kd [1] of 1.16 nM and a Kd [2] of 1.81 nM.

B6: SI-95X5 (antibody)
chain 1: not shown
chain 2: DILMTQSPSSMSVSLGDTVSITCHSSQDINSNIGWLQQRPGKSFKGLIYHGTNLDDEVPSRFSGSGSGADYSLTISSLESEDFADYYCVQYAQFPWTFGGGTKLEIKRTVAAPSVFIFPPSDEQLKSGTASVVCLLNNFYPREAKVQWKVDNALQSGNSQESVTEQDSKDSTYSLSSTLTLSKADYEKHKVYACEVTHQGLSSPVTKSFNRGEC
B6 was tested, and the Kd [3] was 7.94 nM.

B7: SI-95X8 (antibody)
chain 1: not shown
chain 2: DILMTQSPSSMSVSLGDTVSITCHSSQDINSNIGWLQQRPGKSFKGLIYHGTNLDDEVPSRFSGSGSGADYSLTISSLESEDFADYYCVQYAQFPWTFGGGTKLEIKRTVAAPSVFIFPPSDEQLKSGTASVVCLLNNFYPREAKVQWKVDNALQSGNSQESVTEQDSKDSTYSLSSTLTLSKADYEKHKVYACEVTHQGLSSPVTKSFNRGEC
Work on B7 yielded a Kd [3] of 6.97 nM.

B8: SI-95X12 (antibody)
chain 1: not shown
chain 2: QVQLQQSGAEVKKPGSSVKVSCKASGYTFTNYYIYWVRQAPGQGLEWIGGINPTSGGSNFNEKFKTRVTITADESSTTAYMELSSLRSEDTAFYFCTRQGLWFDSDGRGFDFWGQGTTVTVSSGGGGSGGGGSGGGGSDIQMTQSPSSLSASVGDRVTITCRSSQNIVHSNGNTYLDWYQQTPGKAPKLLIYKVSNRFSGVPSRFSGSGSGTDFTFTISSLQPEDIATYYCFQYSHVPWTFGQGTKLQITGGGGSGSGSGGGGGSGGGGSGGGGSDILMTQSPSSMSVSLGDTVSITCHSSQDINSNIGWLQQRPGKSFKGLIYHGTNLDDEVPSRFSGSGSGADYSLTISSLESEDFADYYCVQYAQFPWTFGGGTKLEIKRTVAAPSVFIFPPSDEQLKSGTASVVCLLNNFYPREAKVQWKVDNALQSGNSQESVTEQDSKDSTYSLSSTLTLSKADYEKHKVYACEVTHQGLSSPVTKSFNRGEC
B8 was tested, and the Kd [3] was 7.8 nM.

B9: SI-95X15 (antibody)
chain 1: not shown
chain 2: DIQMTQSPSSLSASVGDRVTITCRSSQNIVHSNGNTYLDWYQQTPGKAPKLLIYKVSNRFSGVPSRFSGSGSGTDFTFTISSLQPEDIATYYCFQYSHVPWTFGQGTKLQITGGGGSGGGGSGGGGSQVQLQQSGAEVKKPGSSVKVSCKASGYTFTNYYIYWVRQAPGQGLEWIGGINPTSGGSNFNEKFKTRVTITADESSTTAYMELSSLRSEDTAFYFCTRQGLWFDSDGRGFDFWGQGTTVTVSSGGGGSGSGSGGGGGSGGGGSGGGGSDILMTQSPSSMSVSLGDTVSITCHSSQDINSNIGWLQQRPGKSFKGLIYHGTNLDDEVPSRFSGSGSGADYSLTISSLESEDFADYYCVQYAQFPWTFGGGTKLEIKRTVAAPSVFIFPPSDEQLKSGTASVVCLLNNFYPREAKVQWKVDNALQSGNSQESVTEQDSKDSTYSLSSTLTLSKADYEKHKVYACEVTHQGLSSPVTKSFNRGEC
B9 showed a Kd [3] of 0.175 nM.

B10: SI-95X7 (antibody)
chain 1: not shown
chain 2: DILMTQSPSSMSVSLGDTVSITCHSSQDINSNIGWLQQRPGKSFKGLIYHGTNLDDEVPSRFSGSGSGADYSLTISSLESEDFADYYCVQYAQFPWTFGGGTKLEIKRTVAAPSVFIFPPSDEQLKSGTASVVCLLNNFYPREAKVQWKVDNALQSGNSQESVTEQDSKDSTYSLSSTLTLSKADYEKHKVYACEVTHQGLSSPVTKSFNRGEC
Work on B10 yielded a Kd [3] of 8.41 nM.

B11: SI-95X13 (antibody)
chain 1: not shown
chain 2: QVQLQQSGAEVKKPGSSVKVSCKASGYTFTNYYIYWVRQAPGQGLEWIGGINPTSGGSNFNEKFKTRVTITADESSTTAYMELSSLRSEDTAFYFCTRQGLWFDSDGRGFDFWGQGTTVTVSSGGGGSGGGGSGGGGSDIQMTQSPSSLSASVGDRVTITCRSSQNIVHSNGNTYLDWYQQTPGKAPKLLIYKVSNRFSGVPSRFSGSGSGTDFTFTISSLQPEDIATYYCFQYSHVPWTFGQGTKLQITGGGGSGGGGSGSGSGGGGGSGGGGSGGGGSDILMTQSPSSMSVSLGDTVSITCHSSQDINSNIGWLQQRPGKSFKGLIYHGTNLDDEVPSRFSGSGSGADYSLTISSLESEDFADYYCVQYAQFPWTFGGGTKLEIKRTVAAPSVFIFPPSDEQLKSGTASVVCLLNNFYPREAKVQWKVDNALQSGNSQESVTEQDSKDSTYSLSSTLTLSKADYEKHKVYACEVTHQGLSSPVTKSFNRGEC
Binder B11 has a Kd [3] of 8.77 nM.

B12: SI-95X16 (antibody)
chain 1: not shown
chain 2: DIQMTQSPSSLSASVGDRVTITCRSSQNIVHSNGNTYLDWYQQTPGKAPKLLIYKVSNRFSGVPSRFSGSGSGTDFTFTISSLQPEDIATYYCFQYSHVPWTFGQGTKLQITGGGGSGGGGSGGGGSQVQLQQSGAEVKKPGSSVKVSCKASGYTFTNYYIYWVRQAPGQGLEWIGGINPTSGGSNFNEKFKTRVTITADESSTTAYMELSSLRSEDTAFYFCTRQGLWFDSDGRGFDFWGQGTTVTVSSGGGGSGGGGSGSGSGGGGGSGGGGSGGGGSDILMTQSPSSMSVSLGDTVSITCHSSQDINSNIGWLQQRPGKSFKGLIYHGTNLDDEVPSRFSGSGSGADYSLTISSLESEDFADYYCVQYAQFPWTFGGGTKLEIKRTVAAPSVFIFPPSDEQLKSGTASVVCLLNNFYPREAKVQWKVDNALQSGNSQESVTEQDSKDSTYSLSSTLTLSKADYEKHKVYACEVTHQGLSSPVTKSFNRGEC
Binder B12 has a Kd [3] of 19.4 nM.

B13: SI-95X11 (antibody)
chain 1: not shown
chain 2: QVQLQQSGAEVKKPGSSVKVSCKASGYTFTNYYIYWVRQAPGQGLEWIGGINPTSGGSNFNEKFKTRVTITADESSTTAYMELSSLRSEDTAFYFCTRQGLWFDSDGRGFDFWGQGTTVTVSSGGGGSGGGGSGGGGSDIQMTQSPSSLSASVGDRVTITCRSSQNIVHSNGNTYLDWYQQTPGKAPKLLIYKVSNRFSGVPSRFSGSGSGTDFTFTISSLQPEDIATYYCFQYSHVPWTFGQGTKLQITSGSGSGGGGGSGGGGSGGGGSDILMTQSPSSMSVSLGDTVSITCHSSQDINSNIGWLQQRPGKSFKGLIYHGTNLDDEVPSRFSGSGSGADYSLTISSLESEDFADYYCVQYAQFPWTFGGGTKLEIKRTVAAPSVFIFPPSDEQLKSGTASVVCLLNNFYPREAKVQWKVDNALQSGNSQESVTEQDSKDSTYSLSSTLTLSKADYEKHKVYACEVTHQGLSSPVTKSFNRGEC
B13 showed a Kd [3] of 4.87 nM.

B14: SI-95X4 (antibody)
chain 1: not shown
chain 2: DILMTQSPSSMSVSLGDTVSITCHSSQDINSNIGWLQQRPGKSFKGLIYHGTNLDDEVPSRFSGSGSGADYSLTISSLESEDFADYYCVQYAQFPWTFGGGTKLEIKRTVAAPSVFIFPPSDEQLKSGTASVVCLLNNFYPREAKVQWKVDNALQSGNSQESVTEQDSKDSTYSLSSTLTLSKADYEKHKVYACEVTHQGLSSPVTKSFNRGEC
Binder B14 has a Kd [3] of 5.52 nM.

B15: SI-95X14 (antibody)
chain 1: not shown
chain 2: DIQMTQSPSSLSASVGDRVTITCRSSQNIVHSNGNTYLDWYQQTPGKAPKLLIYKVSNRFSGVPSRFSGSGSGTDFTFTISSLQPEDIATYYCFQYSHVPWTFGQGTKLQITGGGGSGGGGSGGGGSQVQLQQSGAEVKKPGSSVKVSCKASGYTFTNYYIYWVRQAPGQGLEWIGGINPTSGGSNFNEKFKTRVTITADESSTTAYMELSSLRSEDTAFYFCTRQGLWFDSDGRGFDFWGQGTTVTVSSSGSGSGGGGGSGGGGSGGGGSDILMTQSPSSMSVSLGDTVSITCHSSQDINSNIGWLQQRPGKSFKGLIYHGTNLDDEVPSRFSGSGSGADYSLTISSLESEDFADYYCVQYAQFPWTFGGGTKLEIKRTVAAPSVFIFPPSDEQLKSGTASVVCLLNNFYPREAKVQWKVDNALQSGNSQESVTEQDSKDSTYSLSSTLTLSKADYEKHKVYACEVTHQGLSSPVTKSFNRGEC
Binder B15 has a Kd [3] of 0.428 nM.

B16: SI-95X6 (antibody)
chain 1: not shown
chain 2: DILMTQSPSSMSVSLGDTVSITCHSSQDINSNIGWLQQRPGKSFKGLIYHGTNLDDEVPSRFSGSGSGADYSLTISSLESEDFADYYCVQYAQFPWTFGGGTKLEIKRTVAAPSVFIFPPSDEQLKSGTASVVCLLNNFYPREAKVQWKVDNALQSGNSQESVTEQDSKDSTYSLSSTLTLSKADYEKHKVYACEVTHQGLSSPVTKSFNRGEC
B16 showed a Kd [3] of 6.35 nM.

B17: SI-95X10 (antibody)
chain 1: not shown
chain 2: DILMTQSPSSMSVSLGDTVSITCHSSQDINSNIGWLQQRPGKSFKGLIYHGTNLDDEVPSRFSGSGSGADYSLTISSLESEDFADYYCVQYAQFPWTFGGGTKLEIKRTVAAPSVFIFPPSDEQLKSGTASVVCLLNNFYPREAKVQWKVDNALQSGNSQESVTEQDSKDSTYSLSSTLTLSKADYEKHKVYACEVTHQGLSSPVTKSFNRGEC
For B17, the Kd [3] was 7 nM.
